Test results: US20090048164A1
No end group written: not given here. FLAG = FLAG tag

biological target: mouse Mcl-1 with truncations of 151 amino acid residues at its N-terminus and 23 residues at its C-terminus (mouse) (UniProt P97287); test: competition phage ELISA
Sequence (P97287 152-308): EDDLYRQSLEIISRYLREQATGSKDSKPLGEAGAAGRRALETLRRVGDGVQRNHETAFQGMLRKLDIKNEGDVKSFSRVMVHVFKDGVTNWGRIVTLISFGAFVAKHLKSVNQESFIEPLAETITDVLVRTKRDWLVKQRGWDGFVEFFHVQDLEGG

Question: For RAELPPEFAAQLRKIGDKVACTWSAP-{GGGT-g3(249-406)} (not fully specified (N-terminus)) [mNoxaA BH3 Y20A, phage-displayed], which Fold/wt is on record?
Answer: Its Fold/wt is 1 fold.

Question: And the IC50?
Answer: Its IC50 is 32 nM.

Question: {FLAG}-RAELAPEFAAQLRKIGDKVYCTWSAP-{GGGT-g3(249-406)} [mNoxaA BH3 P5A, phage-displayed] was tested. Which Fold/wt did it give?
Answer: The Fold/wt was 1 fold.

Question: And the IC50?
Answer: Its IC50 is 20 nM.

Question: With {FLAG}-RAELPPEFAAQARKIGDKVYCTWSAP-{GGGT-g3(249-406)} [mNoxaA BH3 L12A, phage-displayed] as the binder, how does the Fold/wt read?
Answer: The Fold/wt was 2 fold.

Question: And the IC50?
Answer: Its IC50 is 67 nM.

Question: For {FLAG}-RAELPPEFAAALRKIGDKVYCTWSAP-{GGGT-g3(249-406)} [mNoxaA BH3 Q11A, phage-displayed], which Fold/wt is on record?
Answer: Its Fold/wt is 1 fold.

Question: What about the IC50 of the same binder?
Answer: The IC50 was 22 nM.

Question: For {FLAG}-RAELPPEFAAQLRKIGDAVYCTWSAP-{GGGT-g3(249-406)} [mNoxaA BH3 K18A, phage-displayed], which Fold/wt is on record?
Answer: The Fold/wt was < 1 fold.

Question: And the IC50?
Answer: Its IC50 is 11 nM.

Question: Which results are given for {FLAG}-RAELPPEFEAQLRKIGDKVYCTWSAP-{GGGT-g3(249-406)} [mNoxaA BH3 A9E, phage-displayed]?
Answer: Fold/wt: 2 fold; IC50: 76 nM

Question: {FLAG}-RAELPPEFAAQLRAIGDKVYCTWSAP-{GGGT-g3(249-406)} [mNoxaA BH3 K14A, phage-displayed] was tested. Which Fold/wt did it give?
Answer: Its Fold/wt is 1 fold.

Question: And the IC50?
Answer: The IC50 was 37 nM.

Question: Which results are given for {FLAG}-RAELPPEAAAQLRKIGDKVYCTWSAP-{GGGT-g3(249-406)} [mNoxaA BH3 F8A, phage-displayed]?
Answer: Fold/wt: 1 fold; IC50: 24 nM

Question: With {FLAG}-RAELPPAFAAQLRKIGDKVYCTWSAP-{GGGT-g3(249-406)} [mNoxaA BH3 E7A, phage-displayed] as the binder, how does the Fold/wt read?
Answer: The Fold/wt was 1 fold.

Question: What about the IC50 of the same binder?
Answer: Its IC50 is 43 nM.

Question: Which results are given for {FLAG}-RAELPPEFAEQLRKIGDKVYCTWSAP-{GGGT-g3(249-406)} [mNoxaA BH3 A10E, phage-displayed]?
Answer: Fold/wt: 1 fold; IC50: 43 nM

Question: With {FLAG}-RAALPPEFAAQLRKIGDKVYCTWSAP-{GGGT-g3(249-406)} [mNoxaA BH3 E3A, phage-displayed] as the binder, how does the Fold/wt read?
Answer: The Fold/wt was 1 fold.

Question: What about the IC50 of the same binder?
Answer: Its IC50 is 30 nM.

Question: How did the Fold/wt turn out when {FLAG}-RAELPPEFAAQLRKIGDKVYATWSAP-{GGGT-g3(249-406)} [mNoxaA BH3 C21A, phage-displayed] was run?
Answer: Its Fold/wt is 1 fold.

Question: What about the IC50 of the same binder?
Answer: The IC50 was 19 nM.

Question: How did the Fold/wt turn out when {FLAG}-RAELPPEFAAQLAKIGDKVYCTWSAP-{GGGT-g3(249-406)} [mNoxaA BH3 R13A, phage-displayed] was run?
Answer: The Fold/wt was 1 fold.

Question: And the IC50?
Answer: Its IC50 is 57 nM.

Question: Which Fold/wt does the source give for {FLAG}-AAELPPEFAAQLRKIGDKVYCTWSAP-{GGGT-g3(249-406)} [mNoxaA BH3 R1A, phage-displayed] here?
Answer: The Fold/wt was 1 fold.

Question: And the IC50?
Answer: The IC50 was 20 nM.

Question: With {FLAG}-REELPPEFAAQLRKIGDKVYCTWSAP-{GGGT-g3(249-406)} [mNoxaA BH3 A2E, phage-displayed] as the binder, how does the Fold/wt read?
Answer: The Fold/wt was 1 fold.

Question: And the IC50?
Answer: Its IC50 is 22 nM.

Question: Which results are given for {FLAG}-RAEAPPEFAAQLRKIGDKVYCTWSAP-{GGGT-g3(249-406)} [mNoxaA BH3 L4A, phage-displayed]?
Answer: Fold/wt: 1 fold; IC50: 24 nM

Question: Which results are given for QEDIIRNIARHLAQAGDSMDRSIPPG [Bid BH3 V15A, phage-displayed]?
Answer: Fold/wt: 2 fold; IC50: 245 nM

Question: For {FLAG}-RAELPAEFAAQLRKIGDKVYCTWSAP-{GGGT-g3(249-406)} [mNoxaA BH3 P6A, phage-displayed], which Fold/wt is on record?
Answer: Its Fold/wt is < 1 fold.

Question: What about the IC50 of the same binder?
Answer: The IC50 was 8 nM.
